Patent EP4755920A1 (Simcere Pharmaceutical Co., Ltd., dated 2026)
Where a chain is given by its changes, count along the chain named.

B1: IL4R-hum-04H7L1 (antibody, V domains shown)
VH: EVQLQESGPGLVKPSETLSLTCTVSGYSISSDYAWNWIRQPPGKGLEWIGYISYSGSSSYNPSLKSRVTISVDTSKNQFSLKLSSVTAADTAVYYCARGGLRRRGLFDYWGQGTTVTVSS
VL: DIQLTQSPSFLSASVGDRVTITCRATSSVTYMHWYQQKPGKAPKPWIYATSNLASGVPSRFSGSGSGTEFTLTISSLQPEDFATYYCQQWSSIPLTFGQGTKLEIK
notes: also called humanized antibody of IL4R-CHI-04, H7 + L1
B2: IL4R-hum-07H1L3 (antibody, V domains shown)
VH: EVQLVQSGAEVKKPGSSVKVSCKASGYTFSEYTIHWVRQAPGQGLEWMGWFYPGRGSIKYNEKFKDRVTITADKSTSTAYMELSSLRSEDTAVYYCTRHEYRGSNYAMDYWGQGTTVTVSS
VL: DIVMTQSPDSLAVSLGERATINCRSSQSIVHSSGNTYLQWYQQKPGQSPKLLIYKVSNRFSGVPDRFSGSGSGTDFTLTISSLQAEDVAVYYCFQGSHVPPTFGGGTKVEIK
notes: also called IL4AR-hum-07H1L3; humanized antibody of IL4R-CHI-07, H1 + L3
B3: IL4R-hum-13H1aL2a (antibody, V domains shown)
VH: EVQLVQSGAEVKKPGASVKVSCKASGYTFTDYYMNWVRQAPGQRLEWMGTINPYNAGTGYNQKFKGRVTITVDKSASTAYMELSSLRSEDTAVYYCARSLLRRRGAMDYWGQGTTVTVSS
VL: DIVLTQSPDSLAVSLGERATINCRASKSVSTSGYGYIHWYQQKPGQPPKLLIYLVDNLESGVPDRFSGSGSGTDFTLTISSLQAEDVATYYCQHIRELYTFGGGTKVEIK
notes: also called humanized antibody of IL4R-CHI-13, H1a + L2a
B4: IL4R-hum-14L2H2 (antibody, V domains shown)
VH: EVQLVESGGGLVQPGGSLRLSCAASGFTFSSYAMSWVRQAPEKRLEWVAIISGGGDSTYYPDSVKGRFTISRDNAKNSLYLQMNSLRAEDTAVYYCARLHYWYFDFWGQGTTVTVSS
VL: DIQMTQSPSSLSASVGDRVTITCKASEDLYNRLAWYQQKPGKAPKLLISGATSLETGVPSRFSGSGSGRDFTLTISSLQPEDFATYYCQQYWRNPYTFGGGTKVEIK
notes: also called humanized antibody of IL4R-CHI-14, L2 + H2
B5: IL4R-hum-17L1H4 (antibody, V domains shown)
VH: EVQLVQSGAEVKKPGASVKVSCKASGYTFTSYNMHWARQAPGQRLEWMGSIYPGNGDTSYNQKFKGRVTITVDKSASTAYMELSSLRSEDTAVYYCARGGRLRRGDWFAYWGQGTLVTVSS
VL: DIQMTQSPSSLSASVGDRVTITCRASENIYSYLIWYQQKPGKSPKLLIYDAKTLAEGVPSRFSGSGSGTDFTLTISSLQPEDFATYYCQHHYGTPLTFGGGTKVEIK
notes: also called humanized antibody of IL4R-CHI-17, L1 + H4
B6: IL4R-hum-18H5L1 (antibody, V domains shown)
VH: EVTLKESGPVLVKPTETLTLTCTVSGFSLTNYGVHWIRQPPGKALEWLGVIWSGGSTDYNAAFKSRLTISKDNSKSQVVLTMTNMDPVDTATYYCARNKGTRPVFDYWGQGTTVTVSS
VL: DIQMTQSPSSLSASVGDRVTITCRASENIYSYLAWYQQKPGKAPKLLIYNAKTLAEGVPSRFSGSGSGTDFTLTISSLQPEDFATYYCQHYVSPLTFGQGTKLEIK
notes: also called humanized antibody of IL4R-CHI-18, H5 + L1
B7: IL4R-CHI-04 (antibody, V domains shown)
VH: DVQLQESGPGLVKPSQSLSLTCTVTGYSITSDYAWNWIRQFPGNKLEWMGYISYSGSSSYNPSLKSRISITRDTSKNQFFLQLNSVTTDDTATYYCAGGGLRRRGLFDYWGQGTTLTVSS
VL: QIVLSQSPAILSASPGEKVTMTCRATSSVTYMHWYQQKPGSSPKPWIYATSNLASGVPARFSGSGSGTSYSLTISRVEAEDTATYYCQQWSSIPLTFGAGTKLELK
notes: Chimeric IgG: murine variable regions (from hybridoma IL4R-SFM-04) on human IgG4 CH1-CH2-CH3 and human kappa constant regions; also called anti-IL4Rα chimeric antibody 04
B8: IL4R-CHI-07 (antibody, V domains shown)
VH: QVQLQQSGAELVKPGASVKLSCKASGYTFTEYTIHWVKQRSGQGLEWIGWFYPGRGSIKYNEKFKDKATLTADKSSSTVYMELSRLTSEDSAVYFCTRHEYRGSNYAMDYWGQGTSVTVSS
VL: DVLMTQTPLSLPVSLGDQASISCRSSQSIVHSSGNTYLQWYLQKPGQSPKLLIYKVSNRFSGVPDRFSGSGSGTDFTLKISRVEAEDLGVYYCFQGSHVPPTFGGGTKLEIK
notes: Chimeric IgG: murine variable regions on human IgG4 CH1-CH2-CH3 and human kappa constant regions; also called anti-IL4Rα chimeric antibody 07
B9: IL4R-CHI-13 (antibody, V domains shown)
VH: EVQLQQSGPVLVKPGASVKMSCKASGYTFTDYYMNWVKQRHGKSLDWIGTINPYNGGTGYNQKFKGKATLTVDKSSSTAYMELNSLTSEDSAVYFCARSLLRRRGAMDYWGQGTSVTVSS
VL: DIVLTQSPASLVVSLGQRATISCRASKSVSTSGYGYIHWYRQKPGQPPKLLIYLVSNLESGVPARFSGSGSGTDFTLNIHPVEEEDAATYYCQHIRELYTFGGGTKLEIK
notes: Chimeric IgG: murine variable regions on human IgG4 CH1-CH2-CH3 and human kappa constant regions; also called anti-IL4Rα chimeric antibody 13
B10: IL4R-CHI-14 (antibody, V domains shown)
VH: B4 VH with Q3M, Q13K, R19K, A40T, S78T, N84S, A88S, V93L, Y95F, Q109T
VL: DIQMTQSSSSFSVSLGDRVTITCKASEDLYNRLAWYQQKPGNAPRLLISGATSLETGVPSRFSGSGSGRDYTLIITSLQTEDVATYYCQQYWRNPYTFGGGTKLEIK
notes: Chimeric IgG: murine variable regions on human IgG4 CH1-CH2-CH3 and human kappa constant regions; also called anti-IL4Rα chimeric antibody 14
B11: IL4R-CHI-17 (antibody, V domains shown)
VH: QAYLQQSGAELVRPGASVKMSCKASGYTFTSYNMHWAKQTPRQGLEWIGSIYPGNGDTSYNQKFKGKATLTVDKSSSTAYMQLSSLTSEDSAVYFCARGGRLRRGDWFAYWGQGTLVTVSA
VL: DIQMTQSPASLSASVGETVTITCRASENIYSYLIWYQQKQGKSPQLLVYDAKTLAEGVPSRFSGSGSGSQFSLKINSLQPEDFGTYYCQHHYGTPLTFGGGTKLELK
notes: Chimeric IgG: murine variable regions on human IgG4 CH1-CH2-CH3 and human kappa constant regions; also called anti-IL4Rα chimeric antibody 17
B12: IL4R-CHI-18 (antibody, V domains shown)
VH: QVQLKQSGPGLVQPSQSLSVTCTVSGFSLTNYGVHWVRQSPGKGLEWLGVIWSGGSTDYNAAFKSRLSISKDNSKSQVFFKMNSLQADDTAIYYCARNKGTRPVFDYWGQGTTLTVSS
VL: DIQMTQSPASLSASVGETVTITCRASENIYSYLAWYQQKQGKSPQLLVYNAKTLAEGVPSRFSGSGSGTQFSLKINSLQPEDFGSYYCQHYVSPLTFGAGTKLEVK
notes: Chimeric IgG: murine variable regions on human IgG4 CH1-CH2-CH3 and human kappa constant regions; also called anti-IL4Rα chimeric antibody 18

What follows are binders tested against T1, hIL4Rα-ECD(26-232)-His (human, UniProt P24394 26-232) (assay: SPR (Biacore 8K), antibody captured on Protein A, antigen as analyte, 1:1 model).
T1 construct: Labelled with biotin (NH2-reactive) for the ELISA; unlabelled as analyte in Biacore; also called hIL4Rα-ECD-His

In order of falling Kd:
1. B2  0.315 nM
2. B5  0.283 nM
3. B1  0.233 nM
4. B4  0.154 nM
5. B6  0.0763 nM
6. B3  0.0692 nM

In order of falling koff:
1. B2  0.000468 s⁻¹
2. B1  0.000445 s⁻¹
3. B5  0.000302 s⁻¹
4. B6  0.000151 s⁻¹
5. B3  9.25e-05 s⁻¹
6. B4  5.07e-05 s⁻¹

In order of rising kon:
1. B4  329000 M⁻¹ s⁻¹
2. B5  1.07e+06 M⁻¹ s⁻¹
3. B3  1.34e+06 M⁻¹ s⁻¹
4. B2  1.48e+06 M⁻¹ s⁻¹
5. B1  1.91e+06 M⁻¹ s⁻¹
6. B6  1.98e+06 M⁻¹ s⁻¹

Target: T1, hIL4Rα-ECD(26-232)-His
Experiment: as above
Remark: another data set of the same source

In order of falling Kd:
1. B7  0.513 nM
2. B8  0.294 nM
3. B11  0.289 nM
4. B10  0.097 nM
5. B12  0.0943 nM
6. B9  0.0779 nM

Each binder was assayed against T2, hIL4Rα-ECD(26-232)-mFc (human) (assay: competition ELISA, hIL4R-ECD-mFc captured by anti-mFc, biotinylated human IL4 as competitor).
T2 construct: also called IL4Rα-ECD protein

In order of rising IC50:
1. B2  1.41 nM
2. B1  1.52 nM
3. B5  1.82 nM
4. B3  1.92 nM
5. B4  2.2 nM
6. B6  2.39 nM
